The source of these data is article PMC7664906 (International Journal of Molecular Sciences, 2020).

Where no end group is shown, it is not given here.

SNAP-GLP-1R (pSNAP-GLP-1R) on HEK293-SNAP-GLP-1R cells, sequence (P43220 24-463): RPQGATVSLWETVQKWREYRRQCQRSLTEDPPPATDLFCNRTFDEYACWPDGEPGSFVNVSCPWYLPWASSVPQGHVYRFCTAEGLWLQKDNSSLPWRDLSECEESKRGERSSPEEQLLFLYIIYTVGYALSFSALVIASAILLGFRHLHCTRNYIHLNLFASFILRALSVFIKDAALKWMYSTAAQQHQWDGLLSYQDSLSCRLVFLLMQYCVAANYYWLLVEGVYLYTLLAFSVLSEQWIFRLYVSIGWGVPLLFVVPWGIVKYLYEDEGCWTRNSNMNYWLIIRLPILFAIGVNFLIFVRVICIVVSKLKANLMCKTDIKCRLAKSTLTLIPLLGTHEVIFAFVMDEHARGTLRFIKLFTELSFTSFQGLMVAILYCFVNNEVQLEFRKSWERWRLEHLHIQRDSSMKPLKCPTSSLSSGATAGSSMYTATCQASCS
ECE-1, sequence (P42892 whole entry, species assumed): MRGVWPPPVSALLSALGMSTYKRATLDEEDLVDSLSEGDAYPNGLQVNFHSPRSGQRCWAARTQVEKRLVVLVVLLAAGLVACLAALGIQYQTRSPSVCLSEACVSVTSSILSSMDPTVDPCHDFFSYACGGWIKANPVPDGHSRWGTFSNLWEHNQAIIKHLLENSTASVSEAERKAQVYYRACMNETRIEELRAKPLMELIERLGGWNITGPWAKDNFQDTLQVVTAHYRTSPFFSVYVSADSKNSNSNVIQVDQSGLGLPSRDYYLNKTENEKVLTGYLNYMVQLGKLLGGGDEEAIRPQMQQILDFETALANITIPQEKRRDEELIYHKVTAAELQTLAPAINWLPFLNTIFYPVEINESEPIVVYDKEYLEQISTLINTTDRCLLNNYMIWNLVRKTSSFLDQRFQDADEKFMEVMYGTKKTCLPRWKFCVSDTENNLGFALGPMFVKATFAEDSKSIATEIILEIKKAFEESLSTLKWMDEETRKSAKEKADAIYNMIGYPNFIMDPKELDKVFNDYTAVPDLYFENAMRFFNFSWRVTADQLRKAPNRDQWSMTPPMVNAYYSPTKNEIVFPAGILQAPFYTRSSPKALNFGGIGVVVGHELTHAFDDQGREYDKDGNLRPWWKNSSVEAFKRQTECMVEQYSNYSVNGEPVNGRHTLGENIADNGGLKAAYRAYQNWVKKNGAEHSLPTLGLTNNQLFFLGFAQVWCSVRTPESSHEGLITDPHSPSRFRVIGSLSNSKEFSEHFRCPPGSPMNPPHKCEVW

The first series addresses SNAP-GLP-1R (pSNAP-GLP-1R) on HEK293-SNAP-GLP-1R cells (UniProt P43220). The series is described as follows: FRET or BRET.
Settings: not given
Turning to “Chi1, N-terminus F1 (phe1 derivative) (peptide)”, the Log Ki was -6.4 Log (M).
Consider “Chi1, N-terminus D3 (asp3 derivative) (peptide)”, for which the Log Ki was -8.5 Log (M).
Still for that read-out and setting: the figure for “exendin-4(1-30), N-terminus F1 (phe1 derivative) (peptide)” is -7.5 Log (M).
Regarding “exendin-4 (from UniProt P26349 48-87) (peptide)”, the Log Ki was -9.5 Log (M).
On the same count and under the same terms, the figure for “exendin-4(1-30), N-terminus D3 (asp3 derivative) (peptide)” is -9.2 Log (M); for “Chi1 (GLP-1 with the exendin-4 Trp-cage added to its C-terminus) (peptide)” it is -8.2 Log (M).
Regarding “exendin-4, N-terminus D3 (asp3 derivative) (peptide)”, the Log Ki was -9.2 Log (M).
As to exendin-phe1 (peptide), the Log Ki is -7.3 Log (M).
The same measure, in the same setting: the figure for exendin-4(1-30) (peptide) is -9 Log (M).

The next series concerns the target ECE-1 (Homo sapiens, UniProt P42892).
Experiment: not given
Conditions: 10 nmol peptide in 750 µl 0.2 M acetate buffer pH 5.5 (GLP-1 also at neutral pH), 0.25 µg recombinant ECE-1, 37 °C, up to 24 h, RP-HPLC C18, UV 214 nm, peak area with versus without enzyme, n = 2-3.
Consider `CC[C@H](C)[C@H](NC(=O)[C@H](Cc1ccccc1)NC(=O)[C@H](CC(C)C)NC(=O)[C@H](CCCNC(=N)N)NC(=O)[C@@H](NC(=O)[C@H](C)NC(=O)[C@H](CCC(=O)O)NC(=O)[C@H](CCC(=O)O)NC(=O)[C@H](CCC(=O)O)NC(=O)[C@H](CC(C)C)NC(=O)[C@H](Cc1ccc(O)cc1)NC(=O)[C@H](CO)NC(=O)[C@H](CO)NC(=O)[C@@H](NC(=O)[C@H](CC(=O)O)NC(=O)[C@H](CO)NC(=O)[C@@H](NC(=O)[C@H](Cc1ccccc1)NC(=O)[C@@H](NC(=O)CNC(=O)[C@H](CCC(=O)O)NC(=O)[C@H](C)NC(=O)[C@@H](N)Cc1c[nH]cn1)[C@@H](C)O)[C@@H](C)O)C(C)C)C(C)C)C(=O)N[C@@H](CCC(=O)O)C(=O)N[C@@H](Cc1c[nH]c2ccccc12)C(=O)N[C@@H](CC(C)C)C(=O)N[C@@H](CCCCN)C(=O)N[C@@H](CC(N)=O)C(=O)NCC(=O)NCC(=O)N1CCC[C@H]1C(=O)N[C@@H](CO)C(=O)N[C@@H](CO)C(=O)NCC(=O)N[C@@H](C)C(=O)N1CCC[C@H]1C(=O)N1CCC[C@H]1C(=O)N1CCC[C@H]1C(=O)N[C@@H](CO)C(N)=O` [Chi3], for which the “In vitro peptide degradation by / resistance to ECE-1 (in words)” value is reported as “most ECE-1-resistant”.
Still for that read-out and setting: the same measure for “HAEGTFTSDVSSYLEGQAAKEFIEWLKNGGPSSGAPPPS-NH2 [Chi2]”: “most ECE-1-resistant”.

Still in this series, the particulars now being: pH 5.5.
Turning to `CC[C@H](C)[C@H](NC(=O)[C@H](Cc1ccccc1)NC(=O)[C@H](CCC(=O)O)NC(=O)[C@H](CCCCN)NC(=O)[C@H](C)NC(=O)[C@H](C)NC(=O)[C@H](CCC(N)=O)NC(=O)CNC(=O)[C@H](CCC(=O)O)NC(=O)[C@H](CC(C)C)NC(=O)[C@H](Cc1ccc(O)cc1)NC(=O)[C@H](CO)NC(=O)[C@H](CO)NC(=O)[C@@H](NC(=O)[C@H](CC(=O)O)NC(=O)[C@H](CO)NC(=O)[C@@H](NC(=O)[C@H](Cc1ccccc1)NC(=O)[C@@H](NC(=O)CNC(=O)[C@H](CCC(=O)O)NC(=O)CNC(=O)[C@@H](N)Cc1cnc[nH]1)[C@@H](C)O)[C@@H](C)O)C(C)C)C(=O)N[C@@H](C)C(=O)N[C@@H](Cc1c[nH]c2ccccc12)C(=O)N[C@@H](CC(C)C)C(=O)N[C@H](C(=O)N[C@@H](CCCCN)C(=O)NCC(=O)N[C@@H](CCCNC(=N)N)C(N)=O)C(C)C` [GLP-1-G2], the “In vitro peptide degradation by / resistance to ECE-1 (in words)” value is on record as “ECE-1-sensitive”.
